Article PMC9913320, “Development of ^99mTc-Hynic-Adh-1 Molecular Probe Specifically Targeting N-Cadherin and Its Preliminary Experimental Study in Monitoring Drug Resistance of Non-Small-Cell Lung Cancer” (Cancers, 2023)

Legend:
[1] = Biodistribution in normal mice; assay type: in vivo, C57/BL6 mice; conditions: for tissue uptake at 0.5 h / tissue uptake at 1 h / tissue uptake at 2 h / tissue uptake at 4 h: i.v.; for tissue uptake at 0.5 h: 30 min; for tissue uptake at 1 h: 60 min; for tissue uptake at 2 h: 120 min; for tissue uptake at 4 h: 240 min
Method: (§1) The radiotracer (0.1 mL, 0.74 MBq) was injected intravenously into normal C57/BL6 mice and xenograft models as previously described (n = 4 per group per time) via the tail vein. After different time intervals (30, 60, 120 and 240 min), the mice were sacrificed by cervical dislocation, and their blood, tumors and major organs (brain, heart, lung, liver, spleen, kidney, stomach, intestine, muscle, bone and skin) were harvested and weighed. The radioactivity of each sample was measured with a γ-counter. Values are shown as the percentage of the injected dose per gram (%ID/g), which corrected for background and decay to maintain consistency.

[2] = In vitro stability in FBS; assay type: in vitro ADME; conditions: room temperature
Method: In vitro stability studies of ^99mTc-HYNIC-ADH1 were performed in FBS as well as PBS solution. A total of 50 μL of ^99mTc-HYNIC-ADH1 was mixed with 950 μL of FBS (or PBS), and its radioactivity was measured after being incubated at room temperature for 0.5, 1, 2, 4, 6 and 24 h, respectively.
For stability assessments, ^99mTc-HYNIC-ADH-1 (3.7 MBq) was incubated in PBS (pH 7.4) or FBS for 24 h. […] The radiochemical purities were 98.51%, 98.50%, 97.97%, 98.02%, 98.81%, 98.09% and 98.09% in FBS at room temperature at 0.5, 1, 2, 3, 6, 12 and 24 h, respectively.

[3] = Biodistribution in xenograft-bearing nude mice, organs; assay type: in vivo, BALB/c nude mice; conditions: mouse, iv, 0.74 MBq, i.v.; for tissue uptake at 0.5 h: 30 min; for tissue uptake at 1 h: 60 min; for tissue uptake at 2 h: 120 min; for tissue uptake at 4 h: 240 min
Method: All animal research was performed in accordance with the Zhejiang University Institutional Animal Care and Use Committee guidelines. PC9 and PC9GR cells (2 × 10^6 cells per mice) were injected subcutaneously into the flanks of 2- to 4-week old BALB/c nude mice (left: PC9GR, right: PC9). The cells were allowed to grow 3–5 weeks until tumors were 1 ± 0.5 cm^3 in volume. Normal C57/BL6 mice (aged 6 to 8 wks old) were obtained from the Animal Center of the First Affiliated Hospital of Zhejiang University. All animals were maintained with free access to food and water and used a standard diet, bedding and environment.
as §1

[4] = Pharmacokinetic studies (blood radioactivity, PK solver); assay type: in vivo; conditions: C57/BL6 mice, i.v.
Method: For the pharmacokinetic studies, four C57/BL6 mice weighing 18–20 g were administrated with ^99mTc-HYNIC-ADH1 (0.1 mL, 0.74 MBq) by i.v. injection into the tail vein. An array of blood samples was acquired and weighed by pinching the tail with a syringe at 2, 5, 15, 20, 30, 45, 60, 90, 120 and 240 min post-injection (p.i.). Radioactivity was calculated as the % of dose per g of tissue per body weight (%ID/g) expressed over time. […] Pharmacokinetics was assayed using PK solver 2.0.

[5] = mouse, blood, iv, 0.74 MBq, normal C57/BL6 mice, read-out: Biodistribution, Blood
[6] = mouse, bone, iv, 0.74 MBq, normal C57/BL6 mice, read-out: Biodistribution, Bone
[7] = mouse, brain, iv, 0.74 MBq, normal C57/BL6 mice, read-out: Biodistribution, Brain
[8] = mouse, heart, iv, 0.74 MBq, normal C57/BL6 mice, read-out: Biodistribution, Heart
[9] = mouse, intestine, iv, 0.74 MBq, normal C57/BL6 mice, read-out: Biodistribution, Intestine
[10] = mouse, kidney, iv, 0.74 MBq, normal C57/BL6 mice, read-out: Biodistribution, Kidney
[11] = mouse, liver, iv, 0.74 MBq, normal C57/BL6 mice, read-out: Biodistribution, Liver
[12] = mouse, lung, iv, 0.74 MBq, normal C57/BL6 mice, read-out: Biodistribution, Lung
[13] = mouse, muscle, iv, 0.74 MBq, normal C57/BL6 mice, read-out: Biodistribution, Muscle
[14] = mouse, skin, iv, 0.74 MBq, normal C57/BL6 mice, read-out: Biodistribution, Skin
[15] = mouse, spleen, iv, 0.74 MBq, normal C57/BL6 mice, read-out: Biodistribution, Spleen
[16] = mouse, stomach, iv, 0.74 MBq, normal C57/BL6 mice, read-out: Biodistribution, Stomach
[17] = blood, read-out: Biodistribution, Blood
[18] = bone, read-out: Biodistribution, Bone
[19] = brain, read-out: Biodistribution, Brain
[20] = heart, read-out: Biodistribution, Heart
[21] = intestine, read-out: Biodistribution, Intestine
[22] = kidney, read-out: Biodistribution, Kidney
[23] = liver, read-out: Biodistribution, Liver
[24] = lung, read-out: Biodistribution, Lung
[25] = muscle, read-out: Biodistribution, Muscle
[26] = skin, read-out: Biodistribution, Skin
[27] = spleen, read-out: Biodistribution, Spleen
[28] = stomach, read-out: Biodistribution, Stomach

CC(=O)N[C@H]1CSSC[C@@H](C(=O)NCCNC(=O)c2ccc(NN)nc2)NC(=O)[C@H](C(C)C)NC(=O)[C@H](C)NC(=O)[C@H](Cc2c[nH]cn2)NC1=O [^99mTc-HYNIC-ADH-1, metal not drawn]
crossing of the blood–brain barrier ([1]; from biodistribution: no obvious distribution in the brain): could not cross the blood–brain barrier | tissue uptake at 0.5 h [1, 5]: 3.31 ± 0.37 %ID/g | tissue uptake at 1 h [1, 5]: 1.23 ± 0.07 %ID/g | tissue uptake at 2 h [1, 5]: 0.84 ± 0.19 %ID/g | tissue uptake at 4 h [1, 5]: 0.58 ± 0.08 %ID/g | tissue uptake at 0.5 h [1, 6]: 1.45 ± 0.11 %ID/g | tissue uptake at 1 h [1, 6]: 0.61 ± 0.14 %ID/g | tissue uptake at 2 h [1, 6]: 0.58 ± 0.3 %ID/g | tissue uptake at 4 h [1, 6]: 0.44 ± 0.15 %ID/g | tissue uptake at 0.5 h [1, 7]: 0.18 ± 0.05 %ID/g | tissue uptake at 1 h [1, 7]: 0.09 ± 0.02 %ID/g | tissue uptake at 2 h [1, 7]: 0.1 ± 0.02 %ID/g | tissue uptake at 4 h [1, 7]: 0.08 ± 0.05 %ID/g | tissue uptake at 0.5 h [1, 8]: 1.71 ± 0.3 %ID/g | tissue uptake at 1 h [1, 8]: 0.49 ± 0.29 %ID/g | tissue uptake at 2 h [1, 8]: 0.43 ± 0.07 %ID/g | tissue uptake at 4 h [1, 8]: 0.32 ± 0.04 %ID/g | tissue uptake at 0.5 h [1, 9]: 2.96 ± 0.3 %ID/g | tissue uptake at 1 h [1, 9]: 2.14 ± 0.43 %ID/g | tissue uptake at 2 h [1, 9]: 1.78 ± 0.2 %ID/g | tissue uptake at 4 h [1, 9]: 1.26 ± 0.33 %ID/g | tissue uptake at 5 min ([1]; mouse, kidney, iv, 0.74 MBq, normal C57/BL6 mice, 5 min): 22.1 ± 1.15 %ID/g | tissue uptake at 0.25 h ([1]; mouse, kidney, iv, 0.74 MBq, normal C57/BL6 mice, 15 min): 12 ± 0.73 %ID/g | tissue uptake at 0.5 h [1, 10]: 12.1 ± 0.47 %ID/g | tissue uptake at 1 h [1, 10]: 9.01 ± 0.76 %ID/g | tissue uptake at 2 h [1, 10]: 6.46 ± 0.3 %ID/g | tissue uptake at 4 h [1, 10]: 6.16 ± 0.51 %ID/g | tissue uptake at 0.5 h [1, 11]: 1.95 ± 0.17 %ID/g | tissue uptake at 1 h [1, 11]: 1.06 ± 0.2 %ID/g | tissue uptake at 2 h [1, 11]: 0.86 ± 0.15 %ID/g | tissue uptake at 4 h [1, 11]: 0.68 ± 0.12 %ID/g | tissue uptake at 0.5 h [1, 12]: 3.83 ± 0.12 %ID/g | tissue uptake at 1 h [1, 12]: 1.7 ± 0.14 %ID/g | tissue uptake at 2 h [1, 12]: 1.54 ± 0.56 %ID/g | tissue uptake at 4 h [1, 12]: 1.08 ± 0.27 %ID/g | tissue uptake at 0.5 h [1, 13]: 1.55 ± 0.8 %ID/g | tissue uptake at 1 h [1, 13]: 0.44 ± 0.08 %ID/g | tissue uptake at 2 h [1, 13]: 0.52 ± 0.29 %ID/g | tissue uptake at 4 h [1, 13]: 0.42 ± 0.21 %ID/g | tissue uptake at 0.5 h [1, 14]: 3.45 ± 0.44 %ID/g | tissue uptake at 1 h [1, 14]: 1.9 ± 0.58 %ID/g | tissue uptake at 2 h [1, 14]: 1.69 ± 0.4 %ID/g | tissue uptake at 4 h [1, 14]: 1.05 ± 0.18 %ID/g | tissue uptake at 0.5 h [1, 15]: 1.25 ± 0.1 %ID/g | tissue uptake at 1 h [1, 15]: 0.73 ± 0.24 %ID/g | tissue uptake at 2 h [1, 15]: 0.53 ± 0.12 %ID/g | tissue uptake at 4 h [1, 15]: 0.45 ± 0.11 %ID/g | tissue uptake at 0.5 h [1, 16]: 2.24 ± 0.42 %ID/g | tissue uptake at 1 h [1, 16]: 0.94 ± 0.23 %ID/g | tissue uptake at 2 h [1, 16]: 0.66 ± 0.09 %ID/g | tissue uptake at 4 h [1, 16]: 1.28 ± 0.43 %ID/g | radiochemical purity ([2]; 0.5 h): 98.51% | radiochemical purity ([2]; 1 h): 98.50% | radiochemical purity ([2]; 2 h): 97.97% | radiochemical purity ([2]; 3 h): 98.02% | radiochemical purity ([2]; 6 h): 98.81% | radiochemical purity ([2]; 12 h): 98.09% | tissue uptake at 0.5 h [3, 17]: 1.35 ± 0.18 %ID/g | tissue uptake at 1 h [3, 17]: 0.84 ± 0.03 %ID/g | tissue uptake at 2 h [3, 17]: 0.49 ± 0.05 %ID/g | tissue uptake at 4 h [3, 17]: 0.48 ± 0.2 %ID/g | tissue uptake at 0.5 h [3, 18]: 0.46 ± 0.03 %ID/g | tissue uptake at 1 h [3, 18]: 0.37 ± 0.04 %ID/g | tissue uptake at 2 h [3, 18]: 0.26 ± 0.04 %ID/g | tissue uptake at 4 h [3, 18]: 0.21 ± 0.01 %ID/g | tissue uptake at 0.5 h [3, 19]: 0.05 ± 0.01 %ID/g | tissue uptake at 1 h [3, 19]: 0.07 ± 0.01 %ID/g | tissue uptake at 2 h [3, 19]: 0.05 %ID/g | tissue uptake at 4 h [3, 19]: 0.03 %ID/g | tissue uptake at 0.5 h [3, 20]: 0.57 ± 0.03 %ID/g | tissue uptake at 1 h [3, 20]: 0.42 ± 0.08 %ID/g | tissue uptake at 2 h [3, 20]: 0.28 ± 0.01 %ID/g | tissue uptake at 4 h [3, 20]: 0.23 ± 0.01 %ID/g | tissue uptake at 0.5 h [3, 21]: 0.43 ± 0.03 %ID/g | tissue uptake at 1 h [3, 21]: 1.38 ± 1.01 %ID/g | tissue uptake at 2 h [3, 21]: 0.58 ± 0.12 %ID/g | tissue uptake at 4 h [3, 21]: 0.88 ± 0.38 %ID/g | tissue uptake at 0.5 h [3, 22]: 3.77 ± 1 %ID/g | tissue uptake at 1 h [3, 22]: 2.85 ± 0.54 %ID/g | tissue uptake at 2 h [3, 22]: 3.13 ± 0.7 %ID/g | tissue uptake at 4 h [3, 22]: 3.13 ± 0.54 %ID/g | tissue uptake at 0.5 h [3, 23]: 0.76 ± 0.06 %ID/g | tissue uptake at 1 h [3, 23]: 0.66 ± 0.06 %ID/g | tissue uptake at 2 h [3, 23]: 0.59 ± 0.01 %ID/g | tissue uptake at 4 h [3, 23]: 0.55 ± 0.1 %ID/g | tissue uptake at 0.5 h [3, 24]: 1.5 ± 0.04 %ID/g | tissue uptake at 1 h [3, 24]: 1.2 ± 0.16 %ID/g | tissue uptake at 2 h [3, 24]: 0.68 ± 0.11 %ID/g | tissue uptake at 4 h [3, 24]: 0.56 ± 0.08 %ID/g | tissue uptake at 0.5 h [3, 25]: 0.5 ± 0.47 %ID/g | tissue uptake at 1 h [3, 25]: 0.47 ± 0.1 %ID/g | tissue uptake at 2 h [3, 25]: 0.24 ± 0.01 %ID/g | tissue uptake at 4 h [3, 25]: 0.25 ± 0.04 %ID/g | tissue uptake at 0.5 h [3, 26]: 1.22 ± 0.05 %ID/g | tissue uptake at 1 h [3, 26]: 1.33 ± 0.33 %ID/g | tissue uptake at 2 h [3, 26]: 1.21 ± 0.44 %ID/g | tissue uptake at 4 h [3, 26]: 1.73 ± 0.08 %ID/g | tissue uptake at 0.5 h [3, 27]: 0.35 ± 0.03 %ID/g | tissue uptake at 1 h [3, 27]: 0.27 ± 0.02 %ID/g | tissue uptake at 2 h [3, 27]: 0.22 ± 0.02 %ID/g | tissue uptake at 4 h [3, 27]: 0.2 ± 0.01 %ID/g | tissue uptake at 0.5 h [3, 28]: 1.16 ± 0.18 %ID/g | tissue uptake at 1 h [3, 28]: 0.78 ± 0.32 %ID/g | tissue uptake at 2 h [3, 28]: 0.73 ± 0.31 %ID/g | tissue uptake at 4 h [3, 28]: 0.69 ± 0.29 %ID/g | AUC(0–t) [4]: 0.0593 µg·min/L | AUC(0–∞) [4]: 0.0595 µg·min/L | K10 [4]: 0.0815 min⁻¹ | K12 [4]: 0.1511 min⁻¹ | K21 [4]: 0.0794 min⁻¹ | V1 [4]: 68.753 L/kg | T1/2α ([4]; two-compartment model): 2.3925 min | half-life ([4]; mouse, blood, iv, 0.74 MBq, two-compartment model, read-out: T1/2β): 31 min
